Test: soluble on expression in E. coli; label from the status in PepcDB or PDB records

**Q.** For “MTLALLGSSLPAASLQAGETGISVSASSTVTYNPDTAEFTTTVESTDKDAAKAAAKVATLWSSLQQALRKVGISSADASSTSYTVSPEWEWNSANGKREFKGYKARHVVRVVVRDLGKLGGAIDAVVGAGSGTVDGLSYSSSRFESLRTQALENAVKSAKHDAEVMARAAGGRLGQPLELQYGQPQSDYPVMRFAMAEGFKAAPAPTDVEPGEQKLTVSVSSRWQFVSGSGKLEHHHHHH”, which “soluble on expression in E. coli” value is on record?
**A.** not soluble

**Q.** For “MRDVTKGSFNDSPNNGFFEIQYKEDGVYLTVHPPIGKGKAVEVNDVISRLTQKKIVYDKEMVELAVQRASNVPVKIGEPQEELKLDATIDVNISPDKMKATMVIRPPDGGRMLTKDEMMEILKNSGVRYGINESMLENVSKYPVYNEIIVIAEGTPPINGQNGKVEFHFDLKKERKPTILEDGRVDFRELNLIESVKKGQVLCTLVPPLPGTPGRTVEDIEVPALDGKPAVLPKGKNVEISEDGQSLIAGIDGQVNYIDGKVSVFANYEVPADVDNSTGNISFVGNVIIRGNVLSGFTVEAGGSVEVMGVVEAAVIKADGDIILRRGMQGLGRGILKSGGDIIAKYIENSIIEAKGDIKAEAIMHSNVKCGNKLELSGKKGLLIGGKCKVGKEIVAKVIGSYLATHTDIEVGVDPQIKERYKELRDEIRKIEEDLVKAEQAITILKKLEAAGKLTPEKQELMARSIRTKIYYSNRLGELKEELIITEQRLQKEADGKIRVFDHIYPGTKVTIGTSMMYVKEDLQYCTLYRDGADIRVGPIDK”, which “soluble on expression in E. coli” value is on record?
**A.** soluble

**Q.** With “MSSKLKISLSCGDYDRTRALFDGRAPIEGCEVTAVPLEPEEAFHRAFRYHEYDVTEISMSSHMMTTARGDNEYIAIPAFLSRVFRHSGIYVRTDRDIDKPQDLRGKTIGVPEYQITANVWIRGILEDAYGVKPQDIKWRRGGIEEPGRGERAPIELPDGIDLQQIPDDKTLSDMLEAGEIDGYIGARAPSCFLRGAPNVGRLFNDYLKTEQDYFRETRIFPIMHMVGIRRSLVEQNPWLPVSVYKAFLKAKMLAVKELNEICHLAVTLPWMVHHYNAARELMGDDYWPYGLDANRHVIETFARYHYGQGLSRRLVKPEELFAASSLDLSKIMAGDPNSLEHHHHHH” as the sequence, how does the “soluble on expression in E. coli” value read?
**A.** not soluble

**Q.** Which “soluble on expression in E. coli” value does the source give for “MGSDKIHHHHHHMPIYVYWGEDDFAIAKAVTTLRDRVLDPLWTSFNYTSFPPEDSEAPIQALNQVMTPVFGAGGRLVWLMNTNLLQNCPENVLAELTRTLSVIPENSFLLLTCRNKPDERLKSTKLLKQSATEFREFPLIPPWKTELLIQAVNQAAQTVGVKLTPKSAELLAEAVGNDTRLLYNEMEKLRLYAEDNNRPIEENTVTRLVRNTTQNSLQLAAAIRVGDTAKALTILADLINAAEPELRIIATLIGQFRTWLWVKLMVESGERNPQAIAQAAEIGNPKRIYFLQQEVQSLSLRQLISCLPLLLELEVTVKQGRAEISILQIKIIELCQLCQRI” here?
**A.** not soluble

**Q.** For “MGKKNEKIVEEAEKVEAETMEVDEQPQETPQVDDEEDLNVPSKKKMEILDPKSFEQDPSNLTLIMYEEDHTIGNSIKHILSRMDEVEFCGYNVPHPLEDKILFRVQTKDGINALEVLAKAFESVEQIFSTIRGKFEESYEQSQS”, which “soluble on expression in E. coli” value is on record?
**A.** soluble

**Q.** Which “soluble on expression in E. coli” value does the source give for “MMSISQLLGCISKQVDGQYIAQYEELTLRSVFQPIYKKDLSIIGLEALVRISTADGSMIRPDLFFQSPSISEHVQLNVERLSRLIHIKNFGQSRYRNKKLFLNVLPRAAEMLAKDLSYSHLLKQVICEADLCREQIVMELVELSAGDESFLYKATKELSDGGFKLAIDDYGINASTIERVKCVRPDIIKMDRSLLLKYEDGDFSALIEALALAKELSSKTVIEGIETEHQLNLMKKLGFDMYQGYLLAMPQTLEMYEEAKTA” here?
**A.** not soluble

**Q.** With “MSLKKIWLGILISVCTLLGADMSLWQKSTLNEIIKRGELRVGLEPGYLPFEMKDKKGNVIGFDVDLAREMAKAMGVKLKLVPTSWDGLIPGLVTEKFDIIISGMTISQERNLRVNFVEPYIVVGQSLLVKKGLEKGVKSYKDLDKPELTLVTKFGVSAEYAAKRLFKNAKLKTYDTEAEAVQEVLNGKADMFIFDLPFNVAFMAQKGQGYLVHLDTSLTYEPLGWAIKKGDPDFLNWLNHFLAQIKHDGSYDELYERWFVDTKWLEKIQEGHHHHHH” as the sequence, how does the “soluble on expression in E. coli” value read?
**A.** soluble

**Q.** For “MGSDKIHHHHHHMLQQRIQSLEEQEHLPSLLSADAQELAHQLQEHQKKIFSPSAQKTMRLFSPAEAAAFIGIGEGYLRQIASEGHGPQPLSNGRRMYAMEDIDRIRRVLDEGSKTGKYIPHRRPGEKLQVVSVMNFKGGSGKTTTSAHLAQYLALRGYRVLAIDLDPQASLSALFGHQPELDVGEGETLYGAIRYEAPRPIAEVVRSTYTANLHLIPGNLELMEFEHETPKAMIAGSTETMFFARIGEVLSEIESFYDIVVIDCPPQLGFLTMSALCAATSVLITVHPQMLDVMSMSQFLSMTSELMAVVENAGGRTSYDWMRYLVTRFEPNDGPQSQMTGFMRAIFGNRMLQNAMVKSTAISDAGVTKQTLYEVERSQFIRGTYDRAMDSLSLVNAEIEEMIRRVWGRK”, which “soluble on expression in E. coli” value is on record?
**A.** not soluble

**Q.** With “MASISTPFPISLHPKTVRSKPLKFRVLTRPIKASGSETPDLTVATRTGSKDLPIRNIPGNYGLPIVGPIKDRWDYFYDQGAEEFFKSRIRKYNSTVYRVNMPPGAFIAENPQVVALLDGKSFPVLFDVDKVEKKDLFTGTYMPSTELTGGYRILSYLDPSEPKHEKLKNLLFFLLKSSRNRIFPEFQATYSELFDSLEKELSLKGKADFGGSSDGTAFNFLARAFYGTNPADTKLKADAPGLITKWVLFNLHPLLSIGLPRVIEEPLIHTFSLPPALVKSDYQRLYEFFLESAGEILVEADKLGISREEATHNLLFATCFNTWGGMKILFPNMVKRIGRAGHQVHNRLAEEIRSVIKSNGGELTMGAIEKMELTKSVVYECLRFEPPVTAQYGRAKKDLVIESHDAAFKVKAGEMLYGYQPLATRDPKIFDRADEFVPERFVGEEGEKLLRHVLWSNGPETETPTVGNKQCAGKDFVVLVARLFVIEIFRRYDSFDIEVGTSPLGSSVNFSSLRKASF” as the sequence, how does the “soluble on expression in E. coli” value read?
**A.** soluble

**Q.** For “MKSTEVKGSVSDATDFLVPLPPKSVNEKILNPAILTLFIPQIKAVSSIRERIYLLRIKWVISWDTPLTVYSVKLDDNRYIARYYASQKIPLFVVSFGFDFYIMSEGTGSRIKMKEWYKGPFKQLAKGEIEKHLKKAKEVLPEFLIKILEHHHHHH”, which “soluble on expression in E. coli” value is on record?
**A.** soluble

**Q.** With “REGMNTIARNLGITCSADIGLISIEYTCFSNNLSYTQVLSLPKTGVNTDKLDQMERFVKEFGNDCSSLTIRQIHNKLDTVQRK” as the sequence, how does the “soluble on expression in E. coli” value read?
**A.** not soluble

**Q.** Which “soluble on expression in E. coli” value does the source give for “MSLFHPEISGEWGAVKGDNIELLLNVDLSNPSPAPILLETIKVKLAGVKIGETKRANIAIFSRKVTIDSIINLDNLTTALINHIKEKEESTVSVYAKLELFDVIPVEYSRDVNFQTDLLSYLKNLRVEPKIYSIGGIPLKTPGIEGMDAKWGRVSNDSIEIIGWLKLYNPNSFPIPVTGLSADLYMNSVNIGKGVILKGTVLQPNSRGEVKVKLVLDVDNFKEAFKTHITNGERSTIRADINLVVKVGGVEYEIPIKDIETTFETDILGSIKFGEGHHHHHH” here?
**A.** soluble

**Q.** For “MLKLGHCGVEKQEVQKRIGLRVIELREHKGWSQSDLARACNKDRQAIEKIESGKVNPTIFSLYEIAIALGVSLSKVTGI”, which “soluble on expression in E. coli” value is on record?
**A.** not soluble

**Q.** With “MRTVVPFDPRDPKSRLAEFFADAEERRGFAYAMLADVLGAVRDAGGDPVVVATAPVSRPVDAPVTVDDRALSTAVAAAIADGPLPTAVVMADLALATPDAIRRVFAASGDVVLAPGSGGGTNVVLARTADVPVSYHGVSFRDHVTAAERAGLTVTTVDSFRLAADVDDASDLVDVFVHNTRRTREWLIAGGWRLAVDDGTPTVVREPND” as the sequence, how does the “soluble on expression in E. coli” value read?
**A.** not soluble

**Q.** Which “soluble on expression in E. coli” value does the source give for “MKLERILPFSKTLIKEHIKQDSIVIDATCGNGNDTLFLAQQVSNGHVFGFDIQDTAIQSTFEKVKAFNNVTLIQDGHENIKKHIDIQFKGQIDAAIFNLGYLPKGDKSIVTRPETTIKAINAIFDYLSVEGIIVLVIYHGHAEGQVERDALLDFLEHFDQEKAHILKYQFMNQVNHAPFICAIEKRLEHHHHHH” here?
**A.** not soluble

**Q.** With “MAHHHHHHMSDNFFIPTFEHIYEQSIPPPLIKHSRKCKNYNKKRKNIIKYTSQDICVEQRNYDKENKEHKYVCINFHTFNKKCYHKNIRLLDHTHLDFTLGESLMYLLNAIIEVISKLKEGKEYKWNIKGKLINSKKENNIQIVYIENAFLSFKSIVLHAPLLKIKSIDI” as the sequence, how does the “soluble on expression in E. coli” value read?
**A.** not soluble

**Q.** With “MAHHHHHHMLPGDVVEVLVTNSHGTQDADDVERLCKALHLDPCAWCELHRSPFVPEDNFPPWLPLQKPLTLGQLLSAYVDISSSSYLLHQSFFESLFRIYSDSKPSSASSTSTTPSPDPEKVRLLEACASSETGPQLLRLLSKSSTPLCYPSLVDVLEVFSFVNIPLDRLLEVSGPLQTRRYSLANWIPATLPLSPLQLCMREVCARRSANLPAATPVGADAQRVADMLNRAAQDASRDHGNFFFGHTSHPLCCAARSMTRSAAGAGQRGMYVSFSLFGNSLFARQLQAGCTALCNPAQAKSLCSPLFLIGCGTGIAPLIAAVTQLMLRRACTAAGSAPFPCWVFYGARTKAELLYDEVLREALRTGAIAKYEYALSREEDNEKQGRYVTDLVKQNRLMVTDSLRNEGQLFVCGPAKALVSVRQLVKCDLLAEPDDDDSVQEQRLLVLEDRGRLNFDIWSTGNIFE” as the sequence, how does the “soluble on expression in E. coli” value read?
**A.** not soluble

**Q.** Which “soluble on expression in E. coli” value does the source give for “MAQSKPAYKVADIKLADFGRKEIILAENEMPGLMAMRSKYGPSQPLKGARIAGCLHMTIQTAVLIETLTALGAEVQWSSCNIFSTQDHAAAAIAQTGVPVYAWKGETDEEYEWCIEQTIVFKDGQPLNMILDDGGDLTNLVHAKYPQYLAGIRGLSEETTTGVHNLAKMLAKGDLKVPAINVNDSVTKSKFDNLYGIRESLPDGIKRATDVMLAGKVAVVAGYGDVGKGSAASLKAFGSRVIVTEIDPINALQAAMEGYEVTTLEEAAPKANIIVTTTGCKDIVTGKHFELLPNDAIVCNVGHFDCEIDVKWLNTNATKKDTIKPQVDRYTLKNGRHVILLAEGRLVNLGCATGHPSFVMSNSFTNQVLAQVELWTKFGTPQEYKLGLYVLPKTLDEEVAYLHLAQLGVKLTKLSDEQASYLGVPVAGPYKPDHYRY” here?
**A.** not soluble

**Q.** With “MSLTKALTFTILHNDMPTYPMKRDWLFWKEVTERTGVTLKPTSVPASDYDKKRSLLIGAGDAPLLIPKTYPGQETAFVSSGAILPVSEYVRLMPNFRAKVEKWGLEGDLDSIRQADGNYYVLPGLHEKVKSGYSLSFRTDVLKKHGLDLPTTWDQVYDVLKALKAAYPDVYPFSDRWGQPTPGGALLNYLGPAFGTKAGWSYANTAWDTKARKYVFTGATDEYRQMLEYLRKLVAEKLMDPESFTQSDDDAVRKLLSGKSFVISANPQELVQNYRYNLGKQVKGATIEMIPVPIGPTGEVIVGSRLENGLMVAGRAAEGDSFVAMMQFVDWLWYSDGGQEFAKYGVEGVTYTSSGAGRYKVADGISYMGSDPSAPKDLQKDYGFTNGEFAYGGSWALVSSSFSPDEKAFQDAMAGRKLLPVDPAHPLKADEQEQATLWDTPLKDHVTQNTLKFALGKRPMSEWDAYLAELKAKNMQRYIDLHNTAYERFKKEHEGHHHHHH” as the sequence, how does the “soluble on expression in E. coli” value read?
**A.** not soluble

**Q.** With “GMGQRSDSDHVMAEATTDKRQGHTRGRTGNDRRTQIIKVATELFREKGYYATSLDDIADRIGFTKPAIYYYFKSKEDVLFAIVNSIVDEALERFHAIAAGPGSPGERIHALLVEHTRTILRNLDANTLFYNERGLLSPEREREMRKREREYTEIMQRLYAEGVATGELLDVDPTVATATLLGAAIWTYRWYDPEGRLSADEVVEQITRLLLNGYRRPA” as the sequence, how does the “soluble on expression in E. coli” value read?
**A.** soluble

Source: the DeepSol protein solubility set
